This is an account of results in patent US20240043515A1 (Chugai, published 2024).

Assay [1] deals with T1, human FcγRIIb extracellular domain (human, UniProt P31994 43-217).
T1 construct: extracellular domain; also called hFcγR IIb
T1 sequence (looked up): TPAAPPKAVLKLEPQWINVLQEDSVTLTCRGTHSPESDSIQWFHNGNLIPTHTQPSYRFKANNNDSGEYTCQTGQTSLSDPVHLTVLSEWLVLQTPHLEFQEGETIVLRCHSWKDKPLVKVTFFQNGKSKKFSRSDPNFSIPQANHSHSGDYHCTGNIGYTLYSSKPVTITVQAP
As to the kind of experiment: SPR; KD of G1d divided by KD of this antibody. The method, then:
(§1) The extracellular domains of FcγRs were produced by the method described in WO2014104165. The interaction between the produced antibodies and human FcγRs was analyzed using Biacore 8K+ by the method below. For the running buffer, 50 mM Na-Phosphate, 150 mM NaCl, and 0.05% Tween20 (pH 7.4) was used, and measurement was performed at 25° C. The sensor chip used was a Series S SA chip (GE Healthcare) onto which CaptureSelect Human Fab-kappa Kinetics Biotin Conjugate (Thermo Fisher Scientific) was immobilized. An antibody of interest was captured onto this chip, and each FcγR diluted with the running buffer was allowed to interact with it. The chip was regenerated using 10 mM Glycine-HCl (pH 1.5), and repeatedly used to capture antibodies and perform measurement. The dissociation constants KD (mol/L) of each antibody for FcγRs were calculated using Biacore Insight Evaluation Software, with a steady state affinity model for the dissociation constant for FcγRIIb and a 1:1 Langmuir binding model for the dissociation constants for the other FcγRs (Table 2).

The target in assay [2] is T2, human FcγRIIIa F extracellular domain (human, UniProt P08637 17-208).
T2 construct: extracellular domain; also called hFcγR IIIa F; FcγRIIIa allotype F158
T2 sequence (P08637 17-208): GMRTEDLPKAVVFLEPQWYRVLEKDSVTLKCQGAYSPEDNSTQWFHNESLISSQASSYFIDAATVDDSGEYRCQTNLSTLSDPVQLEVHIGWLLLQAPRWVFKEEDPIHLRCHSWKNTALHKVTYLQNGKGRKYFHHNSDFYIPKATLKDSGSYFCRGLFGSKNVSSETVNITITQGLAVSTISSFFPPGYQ
Put plainly: SPR; KD of G1d divided by KD of this antibody. The method, then:
as §1

Assay [3] has as its target T3, human FcγRIa extracellular domain (human, UniProt P12314 16-292).
T3 construct: extracellular domain; also called hFcγR Ia
As to the kind of experiment: SPR; KD of G1d divided by KD of this antibody. The method, then: as §1

Assay [4] has as its target T4, human FcγRIIa H extracellular domain (human, UniProt P12318 34-217).
T4 construct: extracellular domain; also called hFcγR IIa H; FcγRIIa allotype H131
T4 sequence (looked up): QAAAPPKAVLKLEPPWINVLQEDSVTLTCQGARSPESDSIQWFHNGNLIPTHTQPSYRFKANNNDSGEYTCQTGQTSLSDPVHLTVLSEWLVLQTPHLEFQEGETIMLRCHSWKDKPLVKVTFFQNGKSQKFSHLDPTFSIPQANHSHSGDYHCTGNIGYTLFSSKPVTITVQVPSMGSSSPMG
As to the kind of experiment: SPR; KD of G1d divided by KD of this antibody. The method, then: as §1

In assay [5] the target is T5, human FcγRIIIa V extracellular domain (human, UniProt P08637 17-208).
T5 construct: extracellular domain; also called hFcγR IIIa V; FcγRIIIa allotype V158
T5 sequence (P08637 17-208 F176V): as the sequence (P08637 17-208) above, with F160V counted along it
Put plainly: SPR; KD of G1d divided by KD of this antibody. The method, then:
as §1

For assay [6], the target named is T6, human FcγRIIa R extracellular domain (human, UniProt P12318 34-217).
T6 construct: extracellular domain; also called hFcγR IIa R; FcγRIIa allotype R131
T6 sequence (looked up): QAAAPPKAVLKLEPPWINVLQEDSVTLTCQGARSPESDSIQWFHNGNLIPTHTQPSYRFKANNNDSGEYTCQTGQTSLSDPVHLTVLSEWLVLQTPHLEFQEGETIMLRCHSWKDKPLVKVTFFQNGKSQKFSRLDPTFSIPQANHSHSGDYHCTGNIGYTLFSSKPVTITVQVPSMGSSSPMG
Put plainly: SPR; KD of G1d divided by KD of this antibody. The method, then: as §1

For assay [7], the target named is hFcγRIIIaV on Jurkat effector cells (human, UniProt P08637 17-254). Put plainly: cell-based or functional assay.
Sequence of hFcγRIIIaV on Jurkat effector cells (P08637 17-254, form in doubt): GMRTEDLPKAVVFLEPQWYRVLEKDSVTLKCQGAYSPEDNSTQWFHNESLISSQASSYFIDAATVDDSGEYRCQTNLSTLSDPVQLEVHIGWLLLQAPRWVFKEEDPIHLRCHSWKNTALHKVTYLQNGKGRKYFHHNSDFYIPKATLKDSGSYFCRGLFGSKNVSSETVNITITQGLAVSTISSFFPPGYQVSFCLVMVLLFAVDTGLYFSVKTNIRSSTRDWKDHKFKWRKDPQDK
Assay [8] concerns the target T2, human FcγRIIIa F extracellular domain. As to the kind of experiment: SPR; KD for hFcγRIIb divided by KD for this FcγR. The method, then:
as §1

In assay [9] the target is T4, human FcγRIIa H extracellular domain. As to the kind of experiment: SPR; KD for hFcγRIIb divided by KD for this FcγR. The method, then: as §1
For assay [10], the target named is T5, human FcγRIIIa V extracellular domain. Put plainly: SPR; KD for hFcγRIIb divided by KD for this FcγR. The method, then:
as §1

Assay [11] has as its target T6, human FcγRIIa R extracellular domain. As to the kind of experiment: SPR; KD for hFcγRIIb divided by KD for this FcγR. The method, then:
as §1

The target in assay [12] is T7, hFcγRIIaH on Jurkat effector cells (human, UniProt P12318 34-317).
T7 sequence (looked up): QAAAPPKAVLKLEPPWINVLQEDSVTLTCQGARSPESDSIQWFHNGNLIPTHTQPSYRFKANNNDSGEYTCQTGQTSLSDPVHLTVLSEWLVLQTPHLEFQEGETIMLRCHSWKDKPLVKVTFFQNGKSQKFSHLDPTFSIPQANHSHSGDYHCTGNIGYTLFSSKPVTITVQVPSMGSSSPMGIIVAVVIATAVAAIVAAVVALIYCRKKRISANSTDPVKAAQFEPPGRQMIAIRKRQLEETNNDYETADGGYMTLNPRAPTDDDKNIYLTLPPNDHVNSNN
Put plainly: cell-based or functional assay.

T3 sequence (P12314 16-292): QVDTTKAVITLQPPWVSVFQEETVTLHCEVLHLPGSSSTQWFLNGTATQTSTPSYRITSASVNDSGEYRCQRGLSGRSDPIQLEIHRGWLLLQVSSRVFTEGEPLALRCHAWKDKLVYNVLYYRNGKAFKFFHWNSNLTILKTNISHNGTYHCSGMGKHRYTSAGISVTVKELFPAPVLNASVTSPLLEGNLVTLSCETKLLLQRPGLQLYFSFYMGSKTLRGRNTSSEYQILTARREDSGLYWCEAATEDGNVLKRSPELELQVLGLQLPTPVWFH

B1: EGL-ART3 (H240-Kn443/L73-k0//H240-H1408/L73-k0) (antibody, human IgG1, kappa)
heavy 1: QDQLVQSGAEVKKPGASVKVSCKASGFNIKDTYIQWVRQAPGQGLEWMGRIDPLRKQTKYREKFEGRVTITADTSTNTAYMELSSLRSEDTAVYYCVRSGREFDYWGQGTLVTVSSASTKGPSVFPLAPSSKSTSGGTAALGCLVKDYFPEPVTVSWNSGALTSGVHTFPAVLQSSGLYSLSSVVTVPSSSLGTQTYICNVNHKPSNTKVDKKVEPKSCDKTHTCPPCPAPEFQWGPMVFLFPPKPKDTLMISRTPEVTCVVVDVSDEEPEVKFNWYVDGVEVHNAKTKPREEQYNATYRVVSVLTVLHQDWLNGKEYKCKVSNDALPAPIEKTISKAKGQPREPQVCTLPPSRDELTKNQVSLWCLVKGFYPSDIAVEWESNGQPENNYKTTPPVLDSDGSFFLYSKLTVDKSRWQQGNVFSCSVMHEALHNHYTQKSLSLSP
heavy 2: QDQLVQSGAEVKKPGASVKVSCKASGFNIKDTYIQWVRQAPGQGLEWMGRIDPLRKQTKYREKFEGRVTITADTSTNTAYMELSSLRSEDTAVYYCVRSGREFDYWGQGTLVTVSSASTKGPSVFPLAPSSKSTSGGTAALGCLVKDYFPEPVTVSWNSGALTSGVHTFPAVLQSSGLYSLSSVVTVPSSSLGTQTYICNVNHKPSNTKVDKKVEPKSCDKTHTCPPCPAPELLAGPSVFLFPPKPKDTLMISRTPEVTCVVVDVSHEEPEVKFNWYVDGVEVHNAKTKPREEQYNATYRVVSVLTVLHQDWLNGKEYKCKVSNDALPAPIEETISKAKGQPREPQVYTLPPSRCELTKNQVSLSCAVKGFYPSDIAVEWESNGQPENNYKTTPPVLDSDGSFFLVSKLTVDKSRWQQGNVFSCSVMHEALHNHYTQKSLSLSP
light: DIQMTQSPSSLSASVGDRVTITCRASQDIHKYIAWYQQKPGQAPRLLIQYTSTLQPGVPSRFSGSGSGTDYTFTISSLQPEDIATYYCLQYEQLRTFGGGTKVEIKRTVAAPSVFIFPPSDEQLKSGTASVVCLLNNFYPREAKVQWKVDNALQSGNSQESVTEQDSKDSTYSLSSTLTLSKADYEKHKVYACEVTHQGLSSPVTKSFNRGEC
notes: Kn443: L234F/L235Q/G236W/S239M/H268D/D270E/S298A/K326D + Y349C/T366W; H1408: G236A/D270E/S298A/K326D/K334E + D356C/T366S/L368A/Y407V
B1: the “Relative value to KD between G1d and hFcgRs” value stood at 1.6 times in assay [1]; 185 times in [2]; 0.5 times in assay [3]; 32.1 times in assay [4]; 114 times in assay [5]; 13.7 times in [6]. For the same molecule, in assay [7], the “EC50 of reporter gene induction (ADCC Reporter Bioassay, Hepa1-6/hEREG target cells)” value worked out at 1.53 ng/mL. Besides, the “A/I ratio (KD for FcγRIIb divided by KD for each FcγR)” value amounted to 396 ratio in assay [8], 181 ratio in assay [9], 2000 ratio in assay [10] and 52.4 ratio in assay [11]. Also, the “EC50 of reporter gene induction (ADCP Reporter Bioassay, Hepa1-6/hEREG target cells)” value in assay [12] is 15.8 ng/mL.

B2: EGL-ART4 (H240-Kn456/L73-k0//H240-H1446/L73-k0) (antibody, human IgG1, kappa)
heavy 1: QDQLVQSGAEVKKPGASVKVSCKASGFNIKDTYIQWVRQAPGQGLEWMGRIDPLRKQTKYREKFEGRVTITADTSTNTAYMELSSLRSEDTAVYYCVRSGREFDYWGQGTLVTVSSASTKGPSVFPLAPSSKSTSGGTAALGCLVKDYFPEPVTVSWNSGALTSGVHTFPAVLQSSGLYSLSSVVTVPSSSLGTQTYICNVNHKPSNTKVDKKVEPKSCDKTHTCPPCPAPEFQWGPMVFLFPPKPKDVLMISRTPEVTCVVVDVSDEEPEVKFNWYVDGVEVHNAKTKPREEQYNATYRVVSVLPVLHQDWLNGKEYKCKVSNKALPMPEEKTISKAKGQPREPQVCTLPPSRDELTKNQVSLWCLVKGFYPSDIAVEWESNGQPENNYKTTPPVLDSDGSFFLYSKLTVDKSRWQQGNVFSCSVMHEALHNHYTQKSLSLSP
heavy 2: QDQLVQSGAEVKKPGASVKVSCKASGFNIKDTYIQWVRQAPGQGLEWMGRIDPLRKQTKYREKFEGRVTITADTSTNTAYMELSSLRSEDTAVYYCVRSGREFDYWGQGTLVTVSSASTKGPSVFPLAPSSKSTSGGTAALGCLVKDYFPEPVTVSWNSGALTSGVHTFPAVLQSSGLYSLSSVVTVPSSSLGTQTYICNVNHKPSNTKVDKKVEPKSCDKTHTCPPCPAPELLAGPSVFLFPPKPKDVLMISRTPEVTCVVVDVSHEEPEVKFNWYVDGVEVHNAKTKPREEQYNATYRVVSVLPVLHQDWLNGKEYKCKVSNDALPMPEEETISKAKGQPREPQVYTLPPSRCELTKNQVSLSCAVKGFYPSDIAVEWESNGQPENNYKTTPPVLDSDGSFFLVSKLTVDKSRWQQGNVFSCSVMHEALHNHYTQKSLSLSP
light: DIQMTQSPSSLSASVGDRVTITCRASQDIHKYIAWYQQKPGQAPRLLIQYTSTLQPGVPSRFSGSGSGTDYTFTISSLQPEDIATYYCLQYEQLRTFGGGTKVEIKRTVAAPSVFIFPPSDEQLKSGTASVVCLLNNFYPREAKVQWKVDNALQSGNSQESVTEQDSKDSTYSLSSTLTLSKADYEKHKVYACEVTHQGLSSPVTKSFNRGEC
notes: Kn456: L234F/L235Q/G236W/S239M/T250V/H268D/D270E/S298A/T307P/A330M/I332E + Y349C/T366W; H1446: G236A/T250V/D270E/S298A/T307P/K326D/A330M/I332E/K334E + D356C/T366S/L368A/Y407V
Consider B2, for which the “Relative value to KD between G1d and hFcgRs” value is 0.9 times in [1]; 2520 times in [2]; 2.9 times in assay [3]; 6.3 times in assay [4]; 462 times in assay [5]; 3.2 times in [6]. Also, the “EC50 of reporter gene induction (ADCC Reporter Bioassay, Hepa1-6/hEREG target cells)” value in assay [7] is 0.789 ng/mL. Besides, the “A/I ratio (KD for FcγRIIb divided by KD for each FcγR)” value is 9940 ratio in [8], 65.2 ratio in assay [9], 15000 ratio in assay [10] and 22.5 ratio in assay [11]. Besides, the “EC50 of reporter gene induction (ADCP Reporter Bioassay, Hepa1-6/hEREG target cells)” value in assay [12] was determined as 43.2 ng/mL.
